Target: His-Nudel^1–201 (UniProt Q9GZM8)
Assay: ITC

UniProt Q9GZM8, sequence (Q9GZM8 1-201): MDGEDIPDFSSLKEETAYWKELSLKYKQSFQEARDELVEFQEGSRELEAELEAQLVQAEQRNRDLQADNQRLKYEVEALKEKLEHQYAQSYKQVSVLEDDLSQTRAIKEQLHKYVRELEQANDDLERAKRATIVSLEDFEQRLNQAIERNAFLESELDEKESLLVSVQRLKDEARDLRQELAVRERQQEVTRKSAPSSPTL

Substance	Kd [µM]
His-tagged Lis1 (from UniProt P43034 1-410) (natural protein)	0.41
His-DIC (natural protein)	7.8

Source: article PMC3826990
